The record followed here is US20170306033A1 (Amgen, published 2017).

Assay [1] addresses T1, human PAC1 receptor (human, UniProt P41586 21-468).
T1 sequence: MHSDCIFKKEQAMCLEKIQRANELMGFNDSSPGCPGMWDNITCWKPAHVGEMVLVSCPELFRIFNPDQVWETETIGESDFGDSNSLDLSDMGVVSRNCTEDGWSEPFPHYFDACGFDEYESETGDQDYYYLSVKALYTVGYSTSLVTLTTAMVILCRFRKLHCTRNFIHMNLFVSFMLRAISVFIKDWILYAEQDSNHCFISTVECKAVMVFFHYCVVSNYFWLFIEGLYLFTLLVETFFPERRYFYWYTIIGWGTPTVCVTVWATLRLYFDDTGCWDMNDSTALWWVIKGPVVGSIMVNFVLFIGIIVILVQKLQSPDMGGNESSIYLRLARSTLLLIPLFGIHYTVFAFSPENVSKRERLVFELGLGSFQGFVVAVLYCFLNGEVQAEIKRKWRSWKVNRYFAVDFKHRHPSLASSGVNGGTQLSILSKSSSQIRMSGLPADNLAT
Put plainly: cell-based or functional assay.

The target of assay [2] is human CGRP receptor (human, UniProt Q16602 23-461; O60894 27-148). Kind of assay: cell-based or functional assay.
human CGRP receptor, sequence (Q16602 23-461 limits assumed, chain 1 of 2): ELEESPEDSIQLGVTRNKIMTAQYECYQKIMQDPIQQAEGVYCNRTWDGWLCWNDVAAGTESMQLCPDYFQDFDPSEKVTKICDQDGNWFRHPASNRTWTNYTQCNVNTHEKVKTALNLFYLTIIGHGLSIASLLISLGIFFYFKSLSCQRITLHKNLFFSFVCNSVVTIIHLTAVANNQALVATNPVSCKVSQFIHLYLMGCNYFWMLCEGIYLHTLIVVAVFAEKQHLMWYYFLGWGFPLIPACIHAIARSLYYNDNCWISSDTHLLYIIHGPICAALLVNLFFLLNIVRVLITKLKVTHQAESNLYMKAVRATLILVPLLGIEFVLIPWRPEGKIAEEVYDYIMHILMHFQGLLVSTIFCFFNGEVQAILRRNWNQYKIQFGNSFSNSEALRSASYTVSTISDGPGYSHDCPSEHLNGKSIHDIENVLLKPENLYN
human CGRP receptor, sequence (O60894 27-148 limits assumed, chain 2 of 2): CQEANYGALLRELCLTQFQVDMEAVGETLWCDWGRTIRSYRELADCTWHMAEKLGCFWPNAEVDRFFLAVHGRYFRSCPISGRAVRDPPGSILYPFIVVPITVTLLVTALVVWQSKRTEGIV

B1: iPS:327874 (bispecific antibody, human IgG1, kappa, N297G)
light 1: not shown
heavy 1: not shown
light 2: EIVLTQSPGTLSLSPGERATLSCRASQSVSSGYLTWYQQKPGQAPRLLIYGASSRATGIPDRFSGSGSGTDFTLTISRLEPEDFAVYYCQQYGNSLSRFGQGTKLEIKRTVAAPSVFIFPPSDEQLKSGTASVVCLLNNFYPREAKVQWKVDNALQSGNSQESVTEQDSKDSTYSLKSTLTLSKADYEKHKVYACEVTHQGLSSPVTKSFNRGEC
heavy 2: not shown
On to B1, for which the “% inhibition of human PAC1” value in assay [1] is 5%. The “% inhibition of human CGRPR” value in assay [2] came out at 95%.

B2: iPS:326666 (bispecific antibody, human IgG2, kappa)
light 1: not shown
heavy 1: QVQLQESGPGLVKPSQTLSLTCTVSGGSISSGGYYWSWIRQHPGKGLEWIGYIYYSGNTYYNPSLKSRVTISGDTSKNQFSLKLRSVTAADTAVYYCTRGGAARGMDVWGQGTTVTVSSASTKGPSVFPLAPCSRSTSESTAALGCLVKDYFPEPVTVSWNSGALTSGVHTFPAVLQSSGLYSLKSVVTVPSSNFGTQTYTCNVDHKPSNTKVDKTVERKCCVECPPCPAPPVAGPSVFLFPPKPKDTLMISRTPEVTCVVVDVSHEDPEVQFNWYVDGVEVHNAKTKPREEQFNSTFRVVSVLTVVHQDWLNGKEYKCKVSNKGLPAPIEKTISKTKGQPREPQVYTLPPSREEMTKNQVSLTCLVDGFYPSDIAVEWESNGQPENNYDTTPPMLDSDGSFFLYSDLTVDKSRWQQGNVFSCSVMHEALHNHYTQKSLSLSPGK
light 2: EIVLTQSPGTLSLSPGERATLSCRASQSVSSGYLTWYQQKPGQAPRLLIYGASSRATGIPDRFSGSGSGTDFTLTISRLEPEDFAVYYCQQYGNSLSRFGQGTKLEIKRTVAAPSVFIFPPSDEQLKSGTASVVCLLNNFYPREAKVQWKVDNALQSGNSQESVTEQDSKDSTYSLKSTLTLSKADYEKHKVYACEVTHQGLSSPVTKSFNRGEC
heavy 2: QVQLVESGGGVVQPGRSLRLSCAASGFTFSSYGMHWVRQAPGKGLEWVAVIWYDGSNKYYADSVKGRFIISRDKSKNTLYLQMNSLRAEDTAVYYCARAGGIAAAGLYYYYGMDVWGQGTTVTVSSASTKGPSVFPLAPCSRSTSESTAALGCLVKDYFPEPVTVSWNSGALTSGVHTFPAVLQSSGLYSLESVVTVPSSNFGTQTYTCNVDHKPSNTKVDKTVERKCCVECPPCPAPPVAGPSVFLFPPKPKDTLMISRTPEVTCVVVDVSHEDPEVQFNWYVDGVEVHNAKTKPREEQFNSTFRVVSVLTVVHQDWLNGKEYKCKVSNKGLPAPIEKTISKTKGQPREPQVYTLPPSRKKMTKNQVSLTCLVKGFYPSDIAVEWESNGQPENNYKTTPPMLKSDGSFFLYSKLTVDKSRWQQGNVFSCSVMHEALHNHYTQKSLSLSPGK
For the molecule B2, the “% inhibition of human PAC1” value in assay [1] worked out at 15%. For the same molecule, the “% inhibition of human CGRPR” value in assay [2] amounted to 74%.

B3: iPS:327880 (bispecific antibody, human IgG1, kappa, lambda, N297G)
light 1: not shown
heavy 1: not shown
light 2: QSVLTQPPSVSAAPGQKVTISCSGSSSNIGNNYVSWYQQLPGTAPKLLIYDNNKRPSGIPDRFSGSKSGTSTTLGITGLQTGDEADYYCGTWDSRLSAVVFGKGTKLTVLGQPKANPTVTLFPPSSEELQANKATLVCLISDFYPGAVTVAWKADGSPVKAGVETTKPSKQSNNKYAAKSYLSLTPEQWKSHRSYSCQVTHEGSTVEKTVAPTECS
heavy 2: QVQLVESGGGVVQPGRSLRLSCAASGFTFSSFGMHWVRQAPGKELEWVAVISFDGSIKYSVDSVKGRFTISRDNSKNTLFLQMNSLRAEDTAVYYCARDRLNYYESSGYYHYKYYGMAVWGQGTTVTVSSASTKGPSVFPLAPSSKSTSGGTAALGCLVKDYFPEPVTVSWNSGALTSGVHTFPAVLQSSGLYSLESVVTVPSSSLGTQTYICNVNHKPSNTKVDKKVEPKSCDKTHTCPPCPAPELLGGPSVFLFPPKPKDTLMISRTPEVTCVVVDVSHEDPEVKFNWYVDGVEVHNAKTKPCEEQYGSTYRCVSVLTVLHQDWLNGKEYKCKVSNKALPAPIEKTISKAKGQPREPQVYTLPPSRKEMTKNQVSLTCLVKGFYPSDIAVEWESNGQPENNYKTTPPVLKSDGSFFLYSKLTVDKSRWQQGNVFSCSVMHEALHNHYTQKSLSLSPGK
Consider B3, for which the “% inhibition of human PAC1” value in assay [1] came out at 15%. In addition, the “% inhibition of human CGRPR” value in assay [2] came to 87%.

B4: iPS:327891 (bispecific antibody, human IgG1, kappa, lambda, N297G)
light 1: DIQMTQSPSSLSASVGDRITITCRASQSISRYLNWYQQKPGKAPKLLIYAASSLQSGIPSRFSGSGSGTDFTLTINSLQPEDFATYFCQQSYSPPFTFGQGTKVDIKRTVAAPSVFIFPPSDEQLKSGTASVVCLLNNFYPREAKVQWKVDNALQSGNSQESVTEQDSKDSTYSLESTLTLSKADYEKHKVYACEVTHQGLSSPVTKSFNRGEC
heavy 1: not shown
light 2: QSVLTQPPSVSAAPGQKVTISCSGSSSNIGNNYVSWYQQLPGTAPKLLIYDNNKRPSGIPDRFSGSKSGTSATLAITGLQTGDEADYYCGTWDSRLSAVVFGGGTKLTVLGQPKANPTVTLFPPSSEELQANKATLVCLISDFYPGAVTVAWKADGSPVKAGVETTKPSKQSNNKYAAKSYLSLTPEQWKSHRSYSCQVTHEGSTVEKTVAPTECS
heavy 2: QVQLVESGGGVVQPGRSLRLSCAASGFTFSSFGMHWVRQAPGKGLEWVAVISFDGSIKYSVDSVKGRFTISRDNSKNTLFLQMNSLRAEDTAVYYCARDRLNYYDSSGYYHYKYYGMAVWGQGTTVTVSSASTKGPSVFPLAPSSKSTSGGTAALGCLVKDYFPEPVTVSWNSGALTSGVHTFPAVLQSSGLYSLESVVTVPSSSLGTQTYICNVNHKPSNTKVDKKVEPKSCDKTHTCPPCPAPELLGGPSVFLFPPKPKDTLMISRTPEVTCVVVDVSHEDPEVKFNWYVDGVEVHNAKTKPCEEQYGSTYRCVSVLTVLHQDWLNGKEYKCKVSNKALPAPIEKTISKAKGQPREPQVYTLPPSRKKMTKNQVSLTCLVKGFYPSDIAVEWESNGQPENNYKTTPPVLKSDGSFFLYSKLTVDKSRWQQGNVFSCSVMHEALHNHYTQKSLSLSPGK
Consider B4, for which the “% inhibition of human PAC1” value in assay [1] was 78%. Besides, the “% inhibition of human CGRPR” value in assay [2] is 80%.

B5: iPS:327882 (bispecific antibody, human IgG1, kappa, lambda, N297G)
light 1: not shown
heavy 1: not shown
light 2: QSVLTQPPSVSAAPGQKVTISCSGSSSNIGNNYVSWYQQLPGTAPKLLIYDNNKRPSGIPDRFSGSKSGTSTTLGITGLQTGDEADYYCGTWDSRLSAVVFGGGTKLTVLGQPKANPTVTLFPPSSEELQANKATLVCLISDFYPGAVTVAWKADGSPVKAGVETTKPSKQSNNKYAAKSYLSLTPEQWKSHRSYSCQVTHEGSTVEKTVAPTECS
heavy 2: QVQLVESGGGVVQPGRSLRLSCAASGFTFSSFGMHWVRQAPGKGLEWVAVISFDGSIKYSVDSVKGRFTISRDNSKNTLFLQMNSLRAEDTAVYYCARDRLNYYESSGYYHYKYYGMAVWGQGTTVTVSSASTKGPSVFPLAPSSKSTSGGTAALGCLVKDYFPEPVTVSWNSGALTSGVHTFPAVLQSSGLYSLESVVTVPSSSLGTQTYICNVNHKPSNTKVDKKVEPKSCDKTHTCPPCPAPELLGGPSVFLFPPKPKDTLMISRTPEVTCVVVDVSHEDPEVKFNWYVDGVEVHNAKTKPCEEQYGSTYRCVSVLTVLHQDWLNGKEYKCKVSNKALPAPIEKTISKAKGQPREPQVYTLPPSRKKMTKNQVSLTCLVKGFYPSDIAVEWESNGQPENNYKTTPPVLKSDGSFFLYSKLTVDKSRWQQGNVFSCSVMHEALHNHYTQKSLSLSPGK
With B5, in assay [1], the “% inhibition of human PAC1” value was found to be 13%. In addition, in assay [2], the “% inhibition of human CGRPR” value turned out to be 83%.

B6: iPS:327892 (bispecific antibody, human IgG1, kappa, lambda, N297G)
light 1: not shown
heavy 1: not shown
light 2: QSVLTQPPSVSAAPGQKVTISCSGSSSNIGNNYVSWYQQLPGTAPKLLIYDNNKRPSGIPDRFSGSKSGTSATLAITGLQTGDEADYYCGTWDSRLSAVVFGGGTKLTVLGQPKANPTVTLFPPSSEELQANKATLVCLISDFYPGAVTVAWKADGSPVKAGVETTKPSKQSNNKYAAKSYLSLTPEQWKSHRSYSCQVTHEGSTVEKTVAPTECS
heavy 2: QVQLVESGGGVVQPGRSLRLSCAASGFTFSSFGMHWVRQAPGKGLEWVAVISFDGSIKYSVDSVKGRFTISRDNSKNTLFLQMNSLRAEDTAVYYCARDRLNYYDSSGYYHYKYYGMAVWGQGTTVTVSSASTKGPSVFPLAPSSKSTSGGTAALGCLVKDYFPEPVTVSWNSGALTSGVHTFPAVLQSSGLYSLESVVTVPSSSLGTQTYICNVNHKPSNTKVDKKVEPKSCDKTHTCPPCPAPELLGGPSVFLFPPKPKDTLMISRTPEVTCVVVDVSHEDPEVKFNWYVDGVEVHNAKTKPCEEQYGSTYRCVSVLTVLHQDWLNGKEYKCKVSNKALPAPIEKTISKAKGQPREPQVYTLPPSRKKMTKNQVSLTCLVKGFYPSDIAVEWESNGQPENNYKTTPPVLKSDGSFFLYSKLTVDKSRWQQGNVFSCSVMHEALHNHYTQKSLSLSPGK
Regarding B6, the “% inhibition of human PAC1” value in assay [1] is 33%. Also, the “% inhibition of human CGRPR” value in assay [2] came to 88%.

B7: iPS:327881 (bispecific antibody, human IgG1, kappa, lambda, N297G)
light 1: DIQMTQSPSSLSASVGDRITITCRASQSISRYLNWYQQKPGKAPKLLIYAASSLQSGIPSRFSGSGSGTDFTLTINSLQPEDFATYFCQQSYSPPFTFGQGTKVDIKRTVAAPSVFIFPPSDEQLKSGTASVVCLLNNFYPREAKVQWKVDNALQSGNSQESVTEQDSKDSTYSLESTLTLSKADYEKHKVYACEVTHQGLSSPVTKSFNRGEC
heavy 1: not shown
light 2: QSVLTQPPSVSAAPGQKVTISCSGSSSNIGNNYVSWYQQLPGTAPKLLIYDNNKRPSGIPDRFSGSKSGTSTTLGITGLQTGDEADYYCGTWDSRLSAVVFGGGTKLTVLGQPKANPTVTLFPPSSEELQANKATLVCLISDFYPGAVTVAWKADGSPVKAGVETTKPSKQSNNKYAAKSYLSLTPEQWKSHRSYSCQVTHEGSTVEKTVAPTECS
heavy 2: QVQLVESGGGVVQPGRSLRLSCAASGFTFSSFGMHWVRQAPGKGLEWVAVISFDGSIKYSVDSVKGRFTISRDNSKNTLFLQMNSLRAEDTAVYYCARDRLNYYESSGYYHYKYYGMAVWGQGTTVTVSSASTKGPSVFPLAPSSKSTSGGTAALGCLVKDYFPEPVTVSWNSGALTSGVHTFPAVLQSSGLYSLESVVTVPSSSLGTQTYICNVNHKPSNTKVDKKVEPKSCDKTHTCPPCPAPELLGGPSVFLFPPKPKDTLMISRTPEVTCVVVDVSHEDPEVKFNWYVDGVEVHNAKTKPCEEQYGSTYRCVSVLTVLHQDWLNGKEYKCKVSNKALPAPIEKTISKAKGQPREPQVYTLPPSRKKMTKNQVSLTCLVKGFYPSDIAVEWESNGQPENNYKTTPPVLKSDGSFFLYSKLTVDKSRWQQGNVFSCSVMHEALHNHYTQKSLSLSPGK
On to B7, for which, in assay [1], the “% inhibition of human PAC1” value is 16%. Further, the “% inhibition of human CGRPR” value in assay [2] worked out at 76%.
